According to the RNAGym collection of RNA variant scans (doi:10.1073/pnas.2313332121):

B1: TPR t1 (parent)
chain: GACCAAUCUGCCCUCAGAGCUCGAGAACAUCUUCGGAUGCAGAGGAGGCAGGCUUCGGUGGCGCGAUAGCGCCAACGUCCUCAACCUCCAAUGCAUCCCACCACAUGAUGAUGCCUGAAGAGCCUUGGUUUUUUG

Variants of: B1
Test: polymerase ribozyme fitness, log enrichment relative to wild type (log ratio); higher = more active; in vitro selection for triplet polymerase activity
Outline: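 Fitness compares each genotype's enrichment to that of the wild type on a logarithmic scale, averaging replicates with inverse-variance weights. The logarithm is base 2. Enrichment came from Illumina sequencing of input and output libraries after one triplicate round of in vitro selection, which included frozen incubation at −7 °C, of PCR-built, transcribed mutant libraries of each subunit of a heterodimeric triplet polymerase ribozyme. Only genotypes with ≥10 input reads and ≥1 read per output were kept.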

| Variant | polymerase ribozyme fitness (log ratio) |
| --- | --- |
| G47U U59C C97U G110C A121G U126C | -6.2 |
| G48A A95G U116G | -1.38 |
| G48A G57C C115G G122A | -1.91 |
| G48A C101U G117C U129C | -6.15 |
| G48A C123A | 0.577 |
| G47U C70G | -6.87 |
| G47U C70A | -4.28 |
| G47U G51U | -4.87 |
| G48A C56U U59C C86A C94A A111C | -5.39 |
| G47U C86G | -0.954 |
| G47U U78C A111U | -4.07 |
| G48A C73U C82U G93U | -1.54 |
| G47U C102U C124A U129C | -2.98 |
| G48A C62A U96A | -2.62 |
| G47U U116G C124U | -2.14 |
| G47U G69A | -4.35 |
| G48A C64U A95U G110C C115A | -5.72 |
| G47U U87G G120A | -1.99 |
| G47U G117A | -3.33 |
| G47U G110U U134A | -2.33 |
| G48A G61C A66U | -2.1 |

| Variant | polymerase ribozyme fitness (log ratio) |
| --- | --- |
| G48A C49U C53A A111U | -3.28 |
| G47U G69C A105U | -5.38 |
| G48A C56A G113U | -4.64 |
| G47U C49G C88A A95C C123A | -3.47 |
| G48A A95G U132A | -1.21 |
| G48A C72U G77C C82G A91C G110C G127C | -6.25 |
| G47U U106C | -1.89 |
| G47U G52A C72U | -2.43 |
| G47U G48A A121U | 1.01 |
| G47U C80A | -5.8 |
| G48A C62A U81A | -3.27 |
| G47U C49G A50C G57U | -1.42 |
| G48A G57A G69U | -0.155 |
| G48A C53G U55C C56A | -0.815 |
| G47U G58A G63U A90G G117C | -6.13 |
| G48A C85G C115U | -2.75 |
| G47U C79G A100G C114G | -6.83 |
| G47U C72G | -2.79 |
| G47U C72A | -0.885 |
| G47U G51A G61U C79G G93A G113C C114G | -6.6 |
| G47U C79U | -1.85 |

| Variant | polymerase ribozyme fitness (log ratio) |
| --- | --- |
| G47U C85U C97A C124G | -4.97 |
| G48A A50C U78A A119G G120C | 0.118 |
| G47U C124G | 0.196 |
| G47U C124A | -0.524 |
| G47U U55G U116G | -3.9 |
| G47U C101A | -2.91 |
| G47U C97A | -5.54 |
| G47U C64A | -6.47 |
| G47U G63U | -2.33 |
| G47U G63A | -2.11 |
| G47U G63C | -2.32 |
| G48A C70U G71U | -0.828 |
| G48A C49G G51U C94A A111U | -6.59 |
| G47U C53A A103C U112A G122A | -6.51 |
| G47U G120C G127C | -1.64 |
| G47U C88A | -6.05 |
| G48A C62A G69U | -5.25 |
| G48A G60U C115U | -0.887 |
| G47U C85G A111C | -2.87 |
| G48A C72G G77A U78A C79A G120A U130A | -2.79 |
| G48A A111G | -0.578 |

| Variant | polymerase ribozyme fitness (log ratio) |
| --- | --- |
| G48A A111C | -0.446 |
| G47U G135U | -2.02 |
| G47U C76U | -1.17 |
| G47U A111G G120A | -2.18 |
| G47U U130G | -2.4 |
| G48A C62G | -2.29 |
| G47U U55A C70U C94G | -4.62 |
| G47U A111C | -3.27 |
| G47U A111G | -0.984 |
| G47U A111U | -3.66 |
| G47U G71U | -2.23 |
| G47U G71C | -2.44 |
| G47U U55A C70A C94G | -4.15 |
| G48A C97A U112C | -2.48 |
| G47U G71C U125G | -2.97 |
| G48A C56A | -1.1 |
| G47U C53G U96G C104U A118G C124U | -1.59 |
| G47U G69U U131A | -1.3 |
| G47U G58C G63U | -1.75 |
| G48A C89G A95G | -3.06 |
